Test [1] deals with AbBphP1 holoprotein (bacteriophytochrome 1 of Azospirillum brasilense Sp7, biliverdin-bound) (Azospirillum brasilense Sp7). Kind of test: cross-linking.
Test [2] shares this target. Nature of the test: SEC.

Stoichiometry N data for one substance are collected here from article PMC3503143.

Take “AbBphP1 holoprotein (bacteriophytochrome 1 of Azospirillum brasilense Sp7, biliverdin-bound) (natural protein)”: the stoichiometry N in test [1] and in test [2] was 2 throughout.
